Laboratory results as given in ChEMBL document CHEMBL2074420, “Taxol transport by human intestinal epithelial Caco-2 cells” (Drug Metab Dispos, 1998).

Tested on: CC(=O)O[C@H]1C(=O)[C@@]2(C)[C@H]([C@H](OC(=O)c3ccccc3)[C@]3(O)C[C@H](OC(=O)[C@H](O)[C@@H](NC(=O)c4ccccc4)c4ccccc4)C(C)=C1C3(C)C)[C@]1(OC(C)=O)CO[C@@H]1C[C@@H]2O
Assay: TP_TRANSPORTER: transepithelial transport (basal to apical) in Caco-2 cells
Assay type: functional, cell-based

ATP-dependent translocase ABCB1 (Homo sapiens)
Km: 16.5 µM
